Assay results taken from paper PMC8786727, “Oligomerization of the FliF Domains Suggests a Coordinated Assembly of the Bacterial Flagellum MS Ring” (Frontiers in Microbiology, 2021).

B1: S. Typhimurium FliF RBM3 (FliF_(231–438)) (domain or fragment)
chain: NDAQLKFANDVESRIQRRIEAILSPIVGNGNVHAQVTAQLDFANKEQTEEHYSPNGDASKATLRSRQLNISEQVGAGYPGGVPGALSNQPAPPNEAPIATPPTNQQNAQNTPQTSTSTNSNSAGPRSTQRNETSNYEVDRTIRHTKMNVGDIERLSVAVVVNYKTLADGKPLPLTADQMKQIEDLTREAMGFSDKRGDTLNVVNSPFS
notes: FliF, Salmonella enterica serovar Typhimurium, residues 231-438 (RBM3); Made by site-directed mutagenesis from the FliF 50-438 pET-28a construct; Forms rings; the number of subunits of this construct was not measured; source: E. coli BL21 DE3, purified (Ni-NTA, SEC on Superose 6)
B2: S. Typhimurium FliF RBM1-RBM2-RBM3 (FliF_(50–438)) (domain or fragment)
chain: DYRTLFSNLSDQDGGAIVAQLTQMNIPYRFANGSGAIEVPADKVHELRLRLAQQGLPKGGAVGFELLDQEKFGISQFSEQVNYQRALEGELARTIETLGPVKSARVHLAMPKPSLFVREQKSPSASVTVTLEPGRALDEGQISAVVHLVSSAVAGLPPGNVTLVDQSGHLLTQSNTSGRDLNDAQLKFANDVESRIQRRIEAILSPIVGNGNVHAQVTAQLDFANKEQTEEHYSPNGDASKATLRSRQLNISEQVGAGYPGGVPGALSNQPAPPNEAPIATPPTNQQNAQNTPQTSTSTNSNSAGPRSTQRNETSNYEVDRTIRHTKMNVGDIERLSVAVVVNYKTLADGKPLPLTADQMKQIEDLTREAMGFSDKRGDTLNVVNSPFS
notes: FliF (flagellar M-ring protein), Salmonella enterica serovar Typhimurium, residues 50-438 (RBM1, RBM2 and RBM3, without the two trans-membrane helices); full length is 1-560; Synthetic gene in pET-28a; 33-fold symmetry seen in top-view cryo-EM 2D classes; the rings also stick together (~10 MDa by SEC-MALS); also called StFliF_(50–438); periplasmic region of FliF; source: E. coli BL21 DE3, …
B3: S. Typhimurium FliF RBM2 (FliF_(124–229)) (domain or fragment)
chain: SQFSEQVNYQRALEGELARTIETLGPVKSARVHLAMPKPSLFVREQKSPSASVTVTLEPGRALDEGQISAVVHLVSSAVAGLPPGNVTLVDQSGHLLTQSNTSGRD
notes: FliF, Salmonella enterica serovar Typhimurium, residues 124-229 (RBM2 and linker L2); Made by site-directed mutagenesis from the FliF 50-438 pET-28a construct; also called RBM2 + L2; source: E. coli BL21 DE3, purified (Ni-NTA, SEC on Superdex 200); copies: 23

Experiments:
[1] = biological target: the molecule itself; test: SEC; purified protein on Superdex 200 10/300 or Superose 6 10/300; 50 mM Hepes pH 8.0 or 9.0, 500 mM NaCl; oligomeric state from the elution volume
[2] = biological target: the molecule itself; test: cryo-EM 2D classification; protein at 10 mg/ml in 50 mM Hepes pH 9.0, 150 mM NaCl; symmetry read from top-view 2D classes; no 3D structure

Protein | binding result [1] | stoichiometry N [2]
B1 | binds | 
B2 |  | 33
B3 |  | 23
